# The supplement of paper PMC9112550, “Optimization of the antimicrobial peptide Bac7 by deep mutational scanning” (BMC Biology, 2022)
# System: Escherichia coli TOP10
# Assay: shrunken log2 fold change of peptide-encoding DNA abundance (4.5 h post-induction vs induction); higher = less antimicrobial activity (less host growth inhibition)
# Conditions: time post-induction: 4.5 h; library: site-saturation at positions 5, 18, 19, 20
# 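Also: peptides expressed intracellularly from a pBAD plasmid library in pooled LB shake-flask culture, induced with 0.3% L-arabinose, DNA abundance read by NGS, three biological replicates, DESeq2 with apeglm shrinkage.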
row,Sequence,shrunken log2 fold change
1,RRIRSRPPRLPRPRPRPPAPPRP,0.906
2,RRIRPRPPRLPRPRPRPCESPRP,0.183
3,RRIRERPPRLPRPRPRPHEGPRP,0.127
4,RRIRVRPPRLPRPRPRPKSLPRP,-0.0854
5,RRIRGRPPRLPRPRPRPASRPRP,0.705
6,RRIRYRPPRLPRPRPRPGAAPRP,0.176
7,RRIRLRPPRLPRPRPRPICTPRP,-0.243
8,RRIRFRPPRLPRPRPRPPNVPRP,0.0696
9,RRIRKRPPRLPRPRPRPELRPRP,1.12
10,RRIRMRPPRLPRPRPRPSWPPRP,0.144
11,RRIRYRPPRLPRPRPRPYRIPRP,-0.731
12,RRIRWRPPRLPRPRPRPPCTPRP,0.124
13,RRIRIRPPRLPRPRPRPPITPRP,-0.366
14,RRIRPRPPRLPRPRPRPESRPRP,0.11
15,RRIRWRPPRLPRPRPRPIPYPRP,-0.031
16,RRIRGRPPRLPRPRPRPKFNPRP,0.353
17,RRIRMRPPRLPRPRPRPRFDPRP,0.364
18,RRIRCRPPRLPRPRPRPLWAPRP,0.321
19,RRIRARPPRLPRPRPRPIMRPRP,0.491
20,RRIRPRPPRLPRPRPRPTMVPRP,-0.0466
21,RRIRARPPRLPRPRPRPMKGPRP,-0.132
22,RRIRCRPPRLPRPRPRPTRNPRP,0.444
23,RRIRIRPPRLPRPRPRPWTGPRP,-0.0257
24,RRIRMRPPRLPRPRPRPCLCPRP,-0.0635
25,RRIRARPPRLPRPRPRPRVHPRP,0.555

row,Sequence,shrunken log2 fold change
1,RRIRWRPPRLPRPRPRPAFHPRP,0.153
2,RRIRCRPPRLPRPRPRPILRPRP,0.103
3,RRIRGRPPRLPRPRPRPFILPRP,-0.196
4,RRIRNRPPRLPRPRPRPNRNPRP,-0.91
5,RRIRHRPPRLPRPRPRPWCEPRP,0.0456
6,RRIRMRPPRLPRPRPRPFSFPRP,-0.0784
7,RRIRTRPPRLPRPRPRPIWQPRP,0.168
8,RRIRRRPPRLPRPRPRPMLWPRP,-0.0161
9,RRIRIRPPRLPRPRPRPFKEPRP,-0.263
10,RRIRMRPPRLPRPRPRPSMLPRP,0.0158
11,RRIRYRPPRLPRPRPRPERNPRP,0.00677
12,RRIRSRPPRLPRPRPRPYESPRP,-0.26
13,RRIRIRPPRLPRPRPRPKVAPRP,0.283
14,RRIRSRPPRLPRPRPRPVSVPRP,0.0162
15,RRIRTRPPRLPRPRPRPKDRPRP,-0.196
16,RRIRWRPPRLPRPRPRPGEGPRP,0.154
17,RRIRWRPPRLPRPRPRPAEVPRP,0.204
18,RRIRERPPRLPRPRPRPFKPPRP,-0.22
19,RRIRIRPPRLPRPRPRPDYAPRP,-0.154
20,RRIRFRPPRLPRPRPRPRHAPRP,0.389
21,RRIRSRPPRLPRPRPRPMQRPRP,0.281
22,RRIRLRPPRLPRPRPRPHRIPRP,-0.0339
23,RRIRMRPPRLPRPRPRPHSHPRP,0.0536
24,RRIRHRPPRLPRPRPRPIHQPRP,-0.441
25,RRIRCRPPRLPRPRPRPDRNPRP,-0.397

row,Sequence,shrunken log2 fold change
1,RRIRYRPPRLPRPRPRPWPRPRP,0.209
2,RRIRFRPPRLPRPRPRPDGYPRP,0.028
3,RRIRIRPPRLPRPRPRPFYAPRP,-0.251
4,RRIRERPPRLPRPRPRPLNSPRP,-0.432
5,RRIRCRPPRLPRPRPRPHEMPRP,-0.0763
6,RRIRPRPPRLPRPRPRPPDDPRP,0.142
7,RRIRGRPPRLPRPRPRPDAYPRP,0.829
8,RRIRLRPPRLPRPRPRPPISPRP,0.0176
9,RRIRVRPPRLPRPRPRPWMWPRP,0.091
10,RRIRCRPPRLPRPRPRPFCIPRP,-0.571
11,RRIRGRPPRLPRPRPRPRPRPRP,1.31
12,RRIRGRPPRLPRPRPRPICNPRP,0.645
13,RRIRVRPPRLPRPRPRPNQGPRP,-0.129
14,RRIRTRPPRLPRPRPRPDLQPRP,-0.0382
15,RRIRYRPPRLPRPRPRPFKMPRP,-0.673
16,RRIRHRPPRLPRPRPRPLPSPRP,0.393
17,RRIRSRPPRLPRPRPRPGMHPRP,-0.0823
18,RRIRERPPRLPRPRPRPFNQPRP,-0.279
19,RRIRHRPPRLPRPRPRPKSMPRP,-0.503
20,RRIRHRPPRLPRPRPRPTQKPRP,-0.00748
21,RRIRARPPRLPRPRPRPASPPRP,0.499
22,RRIRQRPPRLPRPRPRPDYFPRP,-0.198
23,RRIRMRPPRLPRPRPRPAKSPRP,0.261
24,RRIRCRPPRLPRPRPRPGEQPRP,0.262
25,RRIRIRPPRLPRPRPRPCLVPRP,-0.687

row,Sequence,shrunken log2 fold change
1,RRIRHRPPRLPRPRPRPGMFPRP,-0.178
2,RRIRARPPRLPRPRPRPFNFPRP,-0.0477
3,RRIRYRPPRLPRPRPRPVPAPRP,-0.156
4,RRIRQRPPRLPRPRPRPHVIPRP,-0.186
5,RRIRRRPPRLPRPRPRPKWLPRP,0.269
6,RRIRVRPPRLPRPRPRPCGMPRP,-0.00417
7,RRIRCRPPRLPRPRPRPPPYPRP,0.511
8,RRIRWRPPRLPRPRPRPVWWPRP,0.729
9,RRIRNRPPRLPRPRPRPAQNPRP,0.861
10,RRIRCRPPRLPRPRPRPVCIPRP,-0.499
11,RRIRDRPPRLPRPRPRPDNSPRP,0.0428
12,RRIRRRPPRLPRPRPRPSANPRP,0.326
13,RRIRRRPPRLPRPRPRPVWTPRP,0.436
14,RRIRGRPPRLPRPRPRPDMKPRP,0.00543
15,RRIRARPPRLPRPRPRPLDYPRP,-0.25
16,RRIRVRPPRLPRPRPRPPDKPRP,0.265
17,RRIRNRPPRLPRPRPRPWFCPRP,-0.861
18,RRIRMRPPRLPRPRPRPVACPRP,0.122
19,RRIRLRPPRLPRPRPRPTNAPRP,0.00567
20,RRIRVRPPRLPRPRPRPSSFPRP,-0.423
21,RRIRDRPPRLPRPRPRPFWWPRP,0.641
22,RRIRKRPPRLPRPRPRPDNLPRP,-0.0561
23,RRIRWRPPRLPRPRPRPTTQPRP,-0.0204
24,RRIRYRPPRLPRPRPRPMHEPRP,-0.405
25,RRIRHRPPRLPRPRPRPEGHPRP,0.065

row,Sequence,shrunken log2 fold change
1,RRIRIRPPRLPRPRPRPPPDPRP,0.654
2,RRIRFRPPRLPRPRPRPYQMPRP,-0.0843
3,RRIRCRPPRLPRPRPRPEQIPRP,0.259
4,RRIRIRPPRLPRPRPRPCHIPRP,-0.149
5,RRIRIRPPRLPRPRPRPTFKPRP,-0.102
6,RRIRHRPPRLPRPRPRPVYEPRP,0.015
7,RRIRFRPPRLPRPRPRPDPMPRP,-0.196
8,RRIRDRPPRLPRPRPRPLLTPRP,0.35
9,RRIRIRPPRLPRPRPRPCWMPRP,-0.222
10,RRIRLRPPRLPRPRPRPCVYPRP,-0.352
11,RRIRNRPPRLPRPRPRPKKMPRP,-0.233
12,RRIRPRPPRLPRPRPRPLGHPRP,0.163
13,RRIRFRPPRLPRPRPRPRPRPRP,1.65
14,RRIRRRPPRLPRPRPRPEQGPRP,0.0344
15,RRIRIRPPRLPRPRPRPYSRPRP,-0.0136
16,RRIRHRPPRLPRPRPRPMHKPRP,0.227
17,RRIRDRPPRLPRPRPRPQQRPRP,0.147
18,RRIRVRPPRLPRPRPRPANYPRP,-0.241
19,RRIRNRPPRLPRPRPRPVYDPRP,-0.386
20,RRIRFRPPRLPRPRPRPREQPRP,0.204
21,RRIRKRPPRLPRPRPRPCHWPRP,0.139
22,RRIRERPPRLPRPRPRPCIHPRP,-0.229
23,RRIRARPPRLPRPRPRPQYGPRP,-0.442
24,RRIRERPPRLPRPRPRPAWSPRP,0.233
25,RRIRARPPRLPRPRPRPFSGPRP,-0.00374

row,Sequence,shrunken log2 fold change
1,RRIRPRPPRLPRPRPRPNHMPRP,-0.319
2,RRIRARPPRLPRPRPRPPKRPRP,0.485
3,RRIRIRPPRLPRPRPRPKEGPRP,0.00692
4,RRIRFRPPRLPRPRPRPFDFPRP,-0.692
5,RRIRGRPPRLPRPRPRPHHLPRP,0.374
6,RRIRNRPPRLPRPRPRPWACPRP,0.0014
7,RRIRWRPPRLPRPRPRPGHSPRP,0.0135
8,RRIRGRPPRLPRPRPRPNMPPRP,-0.317
9,RRIRIRPPRLPRPRPRPVGWPRP,0.668
10,RRIRERPPRLPRPRPRPFCEPRP,-0.0162
11,RRIRMRPPRLPRPRPRPFAPPRP,0.633
12,RRIRFRPPRLPRPRPRPDPGPRP,-0.162
13,RRIRYRPPRLPRPRPRPWCVPRP,-0.55
14,RRIRDRPPRLPRPRPRPGQPPRP,-0.181
15,RRIRYRPPRLPRPRPRPEDPPRP,-0.0591
16,RRIRARPPRLPRPRPRPMAPPRP,0.0991
17,RRIRIRPPRLPRPRPRPVCIPRP,-0.527
18,RRIRERPPRLPRPRPRPYELPRP,-0.563
19,RRIRARPPRLPRPRPRPNPKPRP,0.372
20,RRIRFRPPRLPRPRPRPMWFPRP,-0.0145
21,RRIRGRPPRLPRPRPRPDNSPRP,0.0661
22,RRIRPRPPRLPRPRPRPINWPRP,-0.241
23,RRIRGRPPRLPRPRPRPQQMPRP,0.287
24,RRIRWRPPRLPRPRPRPIRTPRP,-0.228
25,RRIRPRPPRLPRPRPRPKETPRP,0.0101
